Among the data in a protein production outcome set (Wang et al. 2014) are protein production values, retold here.

This data set can be described thus: label from the status in PepcDB records.
With “MVTSEGLASVDSWLYRQGFNVDSWLLSDTFSHDNDLLARALHTTVTAPHTLTPSSAFFDSSAVSHPSSTNTLSSTVSGASDPEIIGGGAKRKRNCLLTDGKAAKRRARASKKSQTTFITADPSNFRQMVQQVTGAKYIDDSSSFGIFDPIVKPEPLRFVNKLPCGPSDRSTAVPMLDTSAFLSNHHQENLAVGNAFSGNSSSVGLPSGKPSATADPGGSAVEFDNYPTFPTLESWKVM”, the protein production result is listed as “failed”.

In the case of “MDGDGSSFEQFIMPPSALDRLASLHIEYPMLFQLSNVSVEKTSHCGVLEFTADEGLVYLPYWMMQNMSLEEGDVMQVKNISLVKGTYIKLQPHTQDFLDISNPKAILETTLRSYSCLTTGDTIMVPYNNKQYYINVVEAKPSSAVSIIETDCEVDFAPPLDYKEPEKPQKLTPSNKRPLQVKEEEEPASKVPKFTPFTGSGKRLDGKAQTQTEPEDTKQQEKPTENGKDDEKLSVTTPRQISGKLVFGSNSKSAAKETAKVDDPKNIVQESSTKSDEAKFKVFTGKKYSLNG”, the protein production entry is “failed”. For “MRCRVYYEDTDSEGVVYHANYLKYCERARSEFFFKQNVLPENEEGVFVIRSIKADFFTPASLGQVLEIRTQIKELRKVFVVLFQEIYCIQNASLEPMKPFKVFASEIKFGFVNRSTYSPIAIPKLFKELLNAI”, the protein production result is listed as “failed”. Turning to “MRRQTMVKAGAVACAVALLGSLSACGGSKKSTTTADGKPIVTVLVKKNANQEKMANMQWAKDLEADCDCKIEWQEVTREAWAQQKNATLASGDIADVNLNGYGAVEAYQYPGMFEDLSKDLDKLPNVKAFFKQKPDAKKMSTDSKGRIYAIADGRGKAYSGTGQHMLINKAWLDKLGLQVPTTWDELENVLKAFKTQDPNGNGQADEIPMNIKKLEGSYFTWYSPMLLLNSTGIVTGFNKGVSEYGFYAKNGVVKSFLTSDEYKEVIKYYHKLISEGLIPAEWATKDDDAYNADQISDGKTAKTGVVFGWSPSDNFGKLKDQYIAMPVPSAPGVSPDQTVWDGSSSELSPAGLSISSHAANKDAALKLANLLYSEKYSVQQFLGSFGKAITKTGEHEYTVDNDKLSQLTGDNQYPGLSELLVGWIPDEATIKGDTHADELIEVNKVYEEQRSHFDPVKDYIPDYVNMDNMDPSDATKLNTNNAEIFNTTMQKTATWMSKGGIDEEWDAYCKQLDSIGLQESTKIWQKWYDTYTK”, the protein production entry is recorded as “not failed”.

For the sequence “SLLSVDMEMQIPFHDVDSMGITWHGNYLRYFEIARCKLLDELGYNYRQMQASNYAWPIIDLQIKYVKTSTFEQKITVRAELVEWENRLKINYQIRDVETGARITKGYTIQAAVDMCTQELCFVTPEVFRDKIATLFAKVE”, the protein production entry is on record as “failed”. Turning to “WGLSVERSTYFLAPADRHYLADYARQAEDAWRREGAAGAERFRKELSAKEDTWVALVGPHLESLGSTPLSAEESSHLTFMRKLDWPMSRRLQDELPYVSIEFPGHPEQGRLVIQLPERLLPG”, the protein production result is “not failed”. As to “MNATAPGTPPNPPQSTGTLMPLVSFRRHRRIALMVMAVVVVFGAGFAWVKGKAVYSATAVLYVAPHFVNILKESKELDIPAYDQFIEHQALTVPRYDILLESLAKLGDRRYVWQKKKESDRRAAERLQAALEVKPVKDSYLITVTLESTTPDHLDELVNTIVDTYLEKSRESDSFFARNVRLTSLRERRGQIQGEIDAKLARRTEIAQELSVTTFSEQLASPYDKLLIESQNALAMAQRNRLASEAALALFEDRKSGQDAIAAAAFDTIQKDPGLISLKGSLYKRRSELLQQASGLDPRHPLKIQIDREFKEIDEELNRTVAKLTEQVAKSFIDQRKADVKRDRQIEQELSLQLESFRQKASWFAALYNEALSLSDEIERSRKQLDMIDERIEFFELESRAPGFVRVETYARPPELPVKGGRKKLFAVVLVLALALGAATPVGLDMLDQRIRTTGQVAKIIGHRPVAWFVEHHGSPDLKRMSADQLRRLAIAVNREREMHGSRLVSLTSVKPEAGVTDLALDLAAELGVLGVPTVVVEADPLRPDPRYRGGSAQPGLADLLAGSGEVTAAVVPAAGGLPARLGTGTAPGRQLFAYPALRRCLDELKAAYDLVLIDAPPLLLSADAEYLVEIADVTLLLVGAGQVKPGELRRAAGILEKIDPKAVGFVVTRLEVYRGGGYYAKLAEEFALAASHENGQKHTSRRLEG”, the protein production entry is recorded as “failed”.
